In this test the target is archaeal KEOPS complex (pfuPcc1, mjKae1, mjBud32, mjCgi121) (Pyrococcus furiosus | Methanococcus jannaschii) (UniProt Q8TZI1). In words: SEC-MALS.

With “archaeal KEOPS complex (pfuPcc1, mjKae1, mjBud32, mjCgi121) (from UniProt Q8TZI1 1-82; Q58530 1-328; Q58530 1-535; Q57646 1-145)”, the stoichiometry N amounted to 2.

Values taken from article PMC5001605.
